Legend:
HeLa Kyoto [1] = assay: solubility change mitosis vs G1/S (difference of NP-40 vs SDS log2 ratios) (log2 ratio difference); higher = more soluble in mitosis
HeLa Kyoto [2] = assay: solubility in G1/S (NP-40 vs SDS abundance) (log2 ratio); higher = more soluble; details: cell cycle stage: G1/S
HeLa Kyoto [3] = assay: melting temperature (median over replicates), in situ; higher = more thermally stable
HeLa Kyoto [4] = assay: thermal stability score vs G1/S (z-score of summed log2 fold changes over temperatures); higher = more thermally stable than in G1/S
[5] = cell cycle stage: early G1 (4.5 h after nocodazole release)
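For melting temperature (median over replicates), in situ in this document: HeLa Kyoto cells synchronized by double thymidine or nocodazole block, proteins quantified by TMT10plex mass spectrometry, three independent biological replicates.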
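For solubility change mitosis vs G1/S (difference of NP-40 vs SDS log2 ratios) in this document: synchronized HeLa Kyoto cells (double thymidine block for G1/S, nocodazole release for mitosis), protein amounts in NP-40 versus SDS lysates quantified by mass spectrometry, three biological replicates.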
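For solubility in G1/S (NP-40 vs SDS abundance) in this document: HeLa Kyoto cells arrested at G1/S by double thymidine block, proteins quantified by TMT10plex mass spectrometry in mild NP-40 versus SDS extracts, three biological replicates.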
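For thermal stability score vs G1/S (z-score of summed log2 fold changes over temperatures) in this document: synchronized HeLa Kyoto cells, proteins quantified by TMT10plex mass spectrometry, three biological replicates, mitosis taken 0.5 h after nocodazole release, G1/S directly after double thymidine block.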

Chain of TLK2 (chain, as listed by the source): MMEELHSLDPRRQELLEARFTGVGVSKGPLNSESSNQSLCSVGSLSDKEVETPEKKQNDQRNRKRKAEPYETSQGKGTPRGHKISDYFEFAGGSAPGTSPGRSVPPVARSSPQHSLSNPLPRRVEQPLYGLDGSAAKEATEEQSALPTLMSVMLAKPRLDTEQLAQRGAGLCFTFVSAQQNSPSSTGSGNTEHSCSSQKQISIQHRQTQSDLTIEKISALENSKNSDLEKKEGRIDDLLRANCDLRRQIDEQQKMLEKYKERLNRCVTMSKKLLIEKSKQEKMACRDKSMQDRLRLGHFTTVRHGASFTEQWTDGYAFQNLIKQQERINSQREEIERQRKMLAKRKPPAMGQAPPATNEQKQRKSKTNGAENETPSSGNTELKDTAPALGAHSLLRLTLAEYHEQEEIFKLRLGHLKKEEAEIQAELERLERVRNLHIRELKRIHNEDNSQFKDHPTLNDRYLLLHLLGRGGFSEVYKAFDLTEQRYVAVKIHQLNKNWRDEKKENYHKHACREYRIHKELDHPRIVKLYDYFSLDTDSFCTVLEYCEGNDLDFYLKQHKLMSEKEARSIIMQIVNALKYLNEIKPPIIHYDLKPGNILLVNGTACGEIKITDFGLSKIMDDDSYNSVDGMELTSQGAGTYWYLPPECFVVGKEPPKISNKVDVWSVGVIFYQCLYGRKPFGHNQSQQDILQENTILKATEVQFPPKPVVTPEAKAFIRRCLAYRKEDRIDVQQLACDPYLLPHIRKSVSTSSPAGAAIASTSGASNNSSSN

| Substance | solubility change mitosis (log2) (HeLa Kyoto [1]) | solubility in G1/S (log2) (HeLa Kyoto [2]) | melting temperature (HeLa Kyoto [3]; cell cycle stage: G1/S) | melting temperature (HeLa Kyoto [3]; cell cycle stage: mitosis) | thermal stability score (HeLa Kyoto [4]; [5]) | thermal stability score (HeLa Kyoto [4]; cell cycle stage: mitosis) |
| --- | --- | --- | --- | --- | --- | --- |
| MGSMFRSEEVALVQLFLPTAAAYTCVSRLGELGLVEFRDLNASVSAFQRRFVVDVRRCEELEKTFTFLQEEVRRAGLVLPPPKGRLPAPPPRDLLRIQEETERLAQELRDVRGNQQALRAQLHQLQLHAAVLRQGHEPQLAAAHTDGASERTPLLQAPGGPHQDLRVNFVAGAVEPHKAPALERLLWRACRGFLIASFRELEQPLEHPVTGEPATWMTFLISYWGEQIGQKIRKITDCFHCHVFPFLQQEEARLGALQQLQQQSQELQEVLGETERFLSQVLGRVLQLLPPGQVQVHKMKAVYLALNQCSVSTTHKCLIAEAWCSVRDLPALQEALRDSSMEEGVSAVAHRIPCRDMPPTLIRTNRFTASFQGIVDAYGVGRYQEVNPAPYTIITFPFLFAVMFGDVGHGLLMFLFALAMVLAENRPAVKAAQNEIWQTFFRGRYLLLLMGLFSIYTGFIYNECFSRATSIFPSGWSVAAMANQSGWSDAFLAQHTMLTLDPNVTGVFLGPYPFGIDPIWSLAANHLSFLNSFKMKMSVILGVVHMAFGVVLGVFNHVHFGQRHRLLLETLPELTFLLGLFGYLVFLVIYKWLCVWAARAASAPSILIHFINMFLFSHSPSNRLLYPRQEVVQATLVVLALAMVPILLLGTPLHLLHRHRRRLRRRPADRQEENKAGLLDLPDASVNGWSSDEEKAGGLDDEEEAELVPSEVLMHQAIHTIEFCLGCVSNTASYLRLWALSLAHAQLSEVLWAMVMRIGLGLGREVGVAAVVLVPIFAAFAVMTVAILLVMEGLSAFLHALRLHWVEFQNKFYSGTGYKLSPFTFAATDD [TCIRG1] | 0.0336 | -0.278 | 53 °C | 54.1 °C | -2.43 | -1.47 |
| MVMKASVDDDDSGWELSMPEKMEKSNTNWVDITQDFEEACRELKLGELLHDKLFGLFEAMSAIEMMDPKMDAGMIGNQVNRKVLNFEQAIKDGTIKIKDLTLPELIGIMDTCFCCLITWLEGHSLAQTVFTCLYIHNPDFIEDPAMKAFALGILKICDIAREKVNKAAVFEEEDFQSMTYGFKMANSVTDLRVTGMLKDVEDDMQRRVKSTRSRQGEERDPEVELEHQQCLAVFSRVKFTRVLLTVLIAFTKKETSAVAEAQKLMVQAADLLSAIHNSLHHGIQAQNDTTKGDHPIMMGFEPLVNQRLLPPTFPRYAKIIKREEMVNYFARLIDRIKTVCEVVNLTNLHCILDFFCEFSEQSPCVLSRSLLQTTFLVDNKKVFGTHLMQDMVKDALRSFVSPPVLSPKCYLYNNHQAKDCIDSFVTHCVRPFCSLIQIHGHNRARQRDKLGHILEEFATLQDEAEKVDAALHTMLLKQEPQRQHLACLGTWVLYHNLRIMIQYLLSGFELELYSMHEYYYIYWYLSEFLYAWLMSTLSRADGSQMAEERIMEEQQKGRSSKKTKKKKKVRPLSREITMSQAYQNMCAGMFKTMVAFDMDGKVRKPKFELDSEQVRYEHRFAPFNSVMTPPPVHYLQFKEMSDLNKYSPPPQSPELYVAASKHFQQAKMILENIPNPDHEVNRILKVAKPNFVVMKLLAGGHKKESKVPPEFDFSAHKYFPVVKLV [NAA35] | -0.198 | -0.305 | 51.5 °C | 51 °C | 0.213 | 0.348 |
| MERREEQPGAAGAGAAPALDFTVENVEKALHQLYYDPNIENKNLAQKWLMQAQVSPQAWHFSWQLLQPDKVPEIQYFGASALHIKISRYWSDIPTDQYESLKAQLFTQITRFASGSKIVLTRLCVALASLALSMMPDAWPCAVADMVRLFQAEDSPVDGQGRCLALLELLTVLPEEFQTSRLPQYRKGLVRTSLAVECGAVFPLLEQLLQQPSSPSCVRQKVLKCFSSWVQLEVPLQDCEALIQAAFAALQDSELFDSSVEAIVNAISQPDAQRYVNTLLKLIPLVLGLQEQLRQAVQNGDMETSHGICRIAVALGENHSRALLDQVEHWQSFLALVNMIMFCTGIPGHYPVNETTSSLTLTFWYTLQDDILSFEAEKQAVYQQVYRPVYFQLVDVLLHKAQFPSDEEYGFWSSDEKEQFRIYRVDISDTLMYVYEMLGAELLSNLYDKLGRLLTSSEEPYSWQHTEALLYGFQSIAETIDVNYSDVVPGLIGLIPRISISNVQLADTVMFTIGALSEWLADHPVMINSVLPLVLHALGNPELSVSSVSTLKKICRECKYDLPPYAANIVAVSQDVLMKQIHKTSQCMWLMQALGFLLSALQVEEILKNLHSLISPYIQQLEKLAEEIPNPSNKLAIVHILGLLSNLFTTLDISHHEDDHEGPELRKLPVPQGPNPVVVVLQQVFQLIQKVLSKWLNDAQVVEAVCAIFEKSVKTLLDDFAPMVPQLCEMLGRMYSTIPQASALDLTRQLVHIFAHEPAHFPPIEALFLLVTSVTLTLFQQGPRDHPDIVDSFMQLLAQALKRKPDLFLCERLDVKAVFQCAVLALKFPEAPTVKASCGFFTELLPRCGEVESVGKVVQEDGRMLLIAVLEAIGGQASRSLMDCFADILFALNKHCFSLLSMWIKEALQPPGFPSARLSPEQKDTFSQQILRERVNKRRVKEMVKEFTLLCRGLHGTDYTADY [IPO13] | -0.175 | -0.335 | 51.2 °C | 51 °C | -0.535 | -0.562 |
| TLK2 | -0.141 | -0.0304 | 50.9 °C | 52.2 °C | 1.27 | 1.41 |
| MIPVAEFKQFTEQQPAFKVLKPWWDVLAEYLTVAMLMIGVFGCTLQVTQDKIICLPNHELQENLSEAPCQQLLPRGIPEQIGALQEVKGLKNNLDLQQYSFINQLCYETALHWYAKYFPYLVVIHTLIFMVCTSFWFKFPGTSSKIEHFISILGKCFDSPWTTRALSEVSGENQKGPAATERAAATIVAMAGTGPGKAGEGEKEKVLAEPEKVVTEPPVVTLLDKKEGEQAKALFEKVKKFRMHVEEGDILYTMYIRQTVLKVCKFLAILVYNLVYVEKISFLVACRVETSEVTGYASFCCNHTKAHLFSKLAFCYISFVCIYGLTCIYTLYWLFHRPLKEYSFRSVREETGMGDIPDVKNDFAFMLHLIDQYDSLYSKRFAVFLSEVSESRLKQLNLNHEWTPEKLRQKLQRNAAGRLELALCMLPGLPDTVFELSEVESLRLEAICDITFPPGLSQLVHLQELSLLHSPARLPFSLQVFLRDHLKVMRVKCEELREVPLWVFGLRGLEELHLEGLFPQELARAATLESLRELKQLKVLSLRSNAGKVPASVTDVAGHLQRLSLHNDGARLVALNSLKKLAALRELELVACGLERIPHAVFSLGALQELDLKDNHLRSIEEILSFQHCRKLVTLRLWHNQIAYVPEHVRKLRSLEQLYLSYNKLETLPSQLGLCSGLRLLDVSHNGLHSLPPEVGLLQNLQHLALSYNALEALPEELFFCRKLRTLLLGDNQLSQLSPHVGALRALSRLELKGNRLEALPEELGNCGGLKKAGLLVEDTLYQGLPAEVRDKMEEE [LRRC8E] | -0.0391 | 0.0423 | 53.2 °C | 53.1 °C | -1.17 | -1.48 |
| ANKHD1 | -0.0108 | -0.0494 | 47.9 °C | 49.4 °C | 0.478 | 1.9 |
| MDALQLANSAFAVDLFKQLCEKEPLGNVLFSPICLSTSLSLAQVGAKGDTANEIGQVLHFENVKDVPFGFQTVTSDVNKLSSFYSLKLIKRLYVDKSLNLSTEFISSTKRPYAKELETVDFKDKLEETKGQINNSIKDLTDGHFENILADNSVNDQTKILVVNAAYFVGKWMKKFSESETKECPFRVNKTDTKPVQMMNMEATFCMGNIDSINCKIIELPFQNKHLSMFILLPKDVEDESTGLEKIEKQLNSESLSQWTNPSTMANAKVKLSIPKFKVEKMIDPKACLENLGLKHIFSEDTSDFSGMSETKGVALSNVIHKVCLEITEDGGDSIEVPGARILQHKDELNADHPFIYIIRHNKTRNIIFFGKFCSP [SERPINB5] | -0.146 | 0.403 | 52.3 °C | 52.6 °C | 1.51 | 0.174 |
